In PMC5518674:

Biological target: T1, HisMBP-TZAP Znf9-11 (UniProt P10074 521-600)
T1 sequence: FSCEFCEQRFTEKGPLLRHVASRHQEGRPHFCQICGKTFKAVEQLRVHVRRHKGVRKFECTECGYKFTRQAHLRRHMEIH
Assay: EMSA

B1: Telo6 (dsDNA)
DNA 1: GGTCGACTCTAGAGATCGAAGGGTTAGGGTTAGGGTTAGGGTTAGGGTTAGGGTTACGATCCCGGGTACCGAGCTCGA
DNA 2: TCGAGCTCGGTACCCGGGATCGTAACCCTAACCCTAACCCTAACCCTAACCCTAACCCTTCGATCTCTAGAGTCGACC
binding result: binds
